From the RNAGym collection of RNA variant scans (doi:10.1093/molbev/msab373)

B1: Azoarcus group I ribozyme (parent)
chain: GUGCCUUGCGCCGGGAAACCACGCAAGGGAUGGUGUCAAAUUCGGCGAAACCUAAGCGCCCGCCCGGGCGUAUGGCAACGCCGAGCCAAGCUUCGGCGCCUGCGCCGAUGAAGGUGUAGAGACUAGACGGCACCCACCUAAGGCAAACGCUAUGGUGAAGGCAUAGUCCAGGGAGUGGCGAAAGUCACACAAACCGG

Variants of: B1
Test: reverse-splicing fitness (ratio to wild type); higher = more active; in vitro selection; Mg2+ level not given
Procedure, shortened: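 An in vitro group I ribozyme library with randomized positions was T7-transcribed and gel-purified. In triplicate, 10 pmol RNA in EPPS pH 7.5 was reacted with 50 pmoles of a 30-nt RNA substrate for 1 h at 37 °C across several added MgCl2 levels (1–48 mM), then stopped with EDTA. Products were reverse transcribed from a substrate-complementary primer, PCR-amplified and sequenced (HiSeq 4000). Fitness is a variant's read proportion after selection over that before, normalised to wild type.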

Variant | reverse-splicing fitness
GUGCCUUGCGCCGGGAAACCACGCAAGGGAUGGUGUCAAAUUCGGCGAAACCUAAGCGCCCGCCCGGGCGUAUGGCAACGCUGAGCCAAGCUUCGGCGCCUGCGCCGAUGAAGGUGUAGGGACUAGACGGCACCCACCUAAGGCCAACGAUAUGGUGAAGGCAUAGUCCAGGGAGCGGCGAAAGUCACACAAACCGG [C82U A120G A145C C150A U176C] | 0.0066
GUGCCUUGCGCCGGGAAACCACGCAAGGGAUGGUGUCAAAUUCGGCGAAACCUAAGCGCCCGCCCGGGCGUAUGGCAACGCUGAGCCAAGCUUCGGCGCCUGCGCCGAUGAAGGUGUAGGGACUAGACGGCACCCACCUAAGGCCAACGAUAUGGUGAAGGCAUAGUCCAGGGAGGGGCGAAAGUCACACAAACCGG [C82U A120G A145C C150A U176G] | 0.00372
GUGCCUUGCGCCGGGAAACCACGCAAGGGAUGGUGUCAAAUUCGGCGAAACCUAAGCGCCCGCCCGGGCGUAUGGCAACGCUGAGCCAAGCUUCGGCGCCUGCGCCGAUGAAGGUGUAGGGACUAGACGGCACCCACCUAAGGCCAACGAUAUGGUGAAGGCAUAGUCCAGGGAGAGGCGAAAGUCACACAAACCGG [C82U A120G A145C C150A U176A] | 0.0076
GUGCCUUGCGCCGGGAAACCACGCAAGGGAUGGUGUCAAAUUCGGCGAAACCUAAGCGCCCGCCCGGGCGUAUGGCAACGCUGAGCCAAGCUUCGGCGCCUGCGCCGAUGAAGGUGUAGGGACUAGACGGCACCCACCUAAGGCCAACGAUAUGGUGAAGGCAUAGUCUAGGGAGUGGCGAAAGUCACACAAACCGG [C82U A120G A145C C150A C169U] | 0.00698
GUGCCUUGCGCCGGGAAACCACGCAAGGGAUGGUGUCAAAUUCGGCGAAACCUAAGCGCCCGCCCGGGCGUAUGGCAACGCUGAGCCAAGCUUCGGCGCCUGCGCCGAUGAAGGUGUAGGGACUAGACGGCACCCACCUAAGGCCAACGAUAUGGUGAAGGCAUAGUCGAGGGAGUGGCGAAAGUCACACAAACCGG [C82U A120G A145C C150A C169G] | 0.00758
GUGCCUUGCGCCGGGAAACCACGCAAGGGAUGGUGUCAAAUUCGGCGAAACCUAAGCGCCCGCCCGGGCGUAUGGCAACGCUGAGCCAAGCUUCGGCGCCUGCGCCGAUGAAGGUGUAGGGACUAGACGGCACCCACCUAAGGCCAACGGUAUGGUGAAGGCAUAGUCCAGGGAGUGGCGAAAGUCACACAAACCGG [C82U A120G A145C C150G] | 0.00804
GUGCCUUGCGCCGGGAAACCACGCAAGGGAUGGUGUCAAAUUCGGCGAAACCUAAGCGCCCGCCCGGGCGUAUGGCAACGCUGAGCCAAGCUUCGGCGCCUGCGCCGAUGAAGGUGUAGGGACUAGACGGCACCCACCUAAGGCCAACGAUAUGGUGAAGGCAUAGUCUAGGGAGCGGCGAAAGUCACACAAACCGG [C82U A120G A145C C150A C169U U176C] | 0.00972
GUGCCUUGCGCCGGGAAACCACGCAAGGGAUGGUGUCAAAUUCGGCGAAACCUAAGCGCCCGCCCGGGCGUAUGGCAACGCUGAGCCAAGCUUCGGCGCCUGCGCCGAUGAAGGUGUAGGGACUAGACGGCACCCACCUAAGGCCAACGAUAUGGUGAAGGCAUAGUCUAGGGAGGGGCGAAAGUCACACAAACCGG [C82U A120G A145C C150A C169U U176G] | 0.0041
GUGCCUUGCGCCGGGAAACCACGCAAGGGAUGGUGUCAAAUUCGGCGAAACCUAAGCGCCCGCCCGGGCGUAUGGCAACGCUGAGCCAAGCUUCGGCGCCUGCGCCGAUGAAGGUGUAGGGACUAGACGGCACCCACCUAAGGCCAACGAUAUGGUGAAGGCAUAGUCUAGGGAGAGGCGAAAGUCACACAAACCGG [C82U A120G A145C C150A C169U U176A] | 0.0218
GUGCCUUGCGCCGGGAAACCACGCAAGGGAUGGUGUCAAAUUCGGCGAAACCUAAGCGCCCGCCCGGGCGUAUGGCAACGCUGAGCCAAGCUUCGGCGCCUGCGCCGAUGAAGGUGUAGGGACUAGACGGCACCCACCUAAGGCCAACGGUAUGGUGAAGGCAUAGUCAAGGGAGUGGCGAAAGUCACACAAACCGG [C82U A120G A145C C150G C169A] | 0.00904
GUGCCUUGCGCCGGGAAACCACGCAAGGGAUGGUGUCAAAUUCGGCGAAACCUAAGCGCCCGCCCGGGCGUAUGGCAACGCUGAGCCAAGCUUCGGCGCCUGCGCCGAUGAAGGUGUAGGGACUAGACGGCACCCACCUAAGGCCAACGGUAUGGUGAAGGCAUAGUCAAGGGAGAGGCGAAAGUCACACAAACCGG [C82U A120G A145C C150G C169A U176A] | 0.00717
GUGCCUUGCGCCGGGAAACCACGCAAGGGAUGGUGUCAAAUUCGGCGAAACCUAAGCGCCCGCCCGGGCGUAUGGCAACGCUGAGCCAAGCUUCGGCGCCUGCGCCGAUGAAGGUGUAGGGACUAGACGGCACCCACCUAAGGCCAACGGUAUGGUGAAGGCAUAGUCAAGGGAGCGGCGAAAGUCACACAAACCGG [C82U A120G A145C C150G C169A U176C] | 0.00565
GUGCCUUGCGCCGGGAAACCACGCAAGGGAUGGUGUCAAAUUCGGCGAAACCUAAGCGCCCGCCCGGGCGUAUGGCAACGCUGAGCCAAGCUUCGGCGCCUGCGCCGAUGAAGGUGUAGGGACUAGACGGCACCCACCUAAGGCCAACGAUAUGGUGAAGGCAUAGUCGAGGGAGGGGCGAAAGUCACACAAACCGG [C82U A120G A145C C150A C169G U176G] | 0.00402
GUGCCUUGCGCCGGGAAACCACGCAAGGGAUGGUGUCAAAUUCGGCGAAACCUAAGCGCCCGCCCGGGCGUAUGGCAACGCUGAGCCAAGCUUCGGCGCCUGCGCCGAUGAAGGUGUAGGGACUAGACGGCACCCACCUAAGGCCAACGAUAUGGUGAAGGCAUAGUCGAGGGAGCGGCGAAAGUCACACAAACCGG [C82U A120G A145C C150A C169G U176C] | 0.0125
GUGCCUUGCGCCGGGAAACCACGCAAGGGAUGGUGUCAAAUUCGGCGAAACCUAAGCGCCCGCCCGGGCGUAUGGCAACGCUGAGCCAAGCUUCGGCGCCUGCGCCGAUGAAGGUGUAGGGACUAGACGGCACCCACCUAAGGCCAACGAUAUGGUGAAGGCAUAGUCGAGGGAGAGGCGAAAGUCACACAAACCGG [C82U A120G A145C C150A C169G U176A] | 0.0215
